The values that follow come from paper PMC4506495.

Series [1] concerns the target Magnetospirillum gryphiswaldense MSR-1 Fur C9L/M14L/M16V-triple mutant (Magnetospirillum gryphiswaldense MSR-1). In words: crystal structure; holo-Fur with 1 mM MnCl2, 1.9 Å; 10% PEG3000, 0.1 M CHES pH 9.0.
For series [2] the target is unchanged. Description: crystal structure; Fur-Mn2+ with the 25-bp feoAB1 operator dsDNA (three base-pair mutations), 2.6 Å (SeMet form 2.82 Å).
For series [3], the target named is Magnetospirillum gryphiswaldense MSR-1 ferric uptake regulator (Fur), wild type (Magnetospirillum gryphiswaldense MSR-1). In words: SEC; size-exclusion chromatography of apo-Fur in solution.
Series [4] has the same target. Description: AUC; analytical ultracentrifugation of apo-Fur in solution.
The target is the same in series [5]. In words: crystal structure; apo-Fur without transition metal ions, 1.55 Å; crystals from (NH4)2SO4, 0.1 M sodium citrate pH 5.5.
In series [6] the target is T1, MgFur E108A/H125A (metal site 2 mutant) E108A;H125A (Magnetospirillum gryphiswaldense MSR-1) (UniProt V6F4Q0).
T1 sequence: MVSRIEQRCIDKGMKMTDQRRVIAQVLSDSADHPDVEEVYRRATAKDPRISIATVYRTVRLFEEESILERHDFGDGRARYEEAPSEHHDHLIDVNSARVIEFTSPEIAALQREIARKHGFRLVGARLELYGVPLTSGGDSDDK
Description: SPR. The following applies: 1 mM Mn2+, SPR: 20 mM Tris-HCl pH 8.0, 150 mM NaCl, 1 mM MnCl2, 0.005% Tween20, 25 C, EMSA: 40 mM HEPES pH 7.0, 125 mM NaCl, 2 mM FeSO4/MnCl2/EDTA, footprinting: …. A general note: In EMSA bound probe runs differently from free probe, usually more slowly.

The target in series [7] is T2, MgFur K15A K15A (Magnetospirillum gryphiswaldense MSR-1) (UniProt V6F4Q0).
T2 sequence: T1 sequence with K15A, A108E, A125H
Description: SPR. The following applies: 1 mM Mn2+, SPR: 20 mM Tris-HCl pH 8.0, 150 mM NaCl, 1 mM MnCl2, 0.005% Tween20, 25 C, EMSA: 40 mM HEPES pH 7.0, 125 mM NaCl, 2 mM FeSO4/MnCl2/EDTA, footprinting: ….

The target in series [8] is T3, MgFur WT (Magnetospirillum gryphiswaldense MSR-1) (UniProt V6F4Q0).
T3 sequence: T1 sequence with A108E, A125H
Description: SPR. The conditions noted are these: 1 mM Mn2+, SPR: 20 mM Tris-HCl pH 8.0, 150 mM NaCl, 1 mM MnCl2, 0.005% Tween20, 25 C, EMSA: 40 mM HEPES pH 7.0, 125 mM NaCl, 2 mM FeSO4/MnCl2/EDTA, footprinting: ….

Substitutions are numbered along the chain they refer to.

As to “Magnetospirillum gryphiswaldense MSR-1 Fur C9L/M14L/M16V-triple mutant (natural protein)”, the stoichiometry N in series [1] and in series [2] was 2 each time.

For “Magnetospirillum gryphiswaldense MSR-1 ferric uptake regulator (Fur), wild type (natural protein)”, the stoichiometry N in series [3], in series [4] and in series [5] was 2 throughout.

For “TTAATCGCAACTCATTCGCAATTGC (double strand) [feoAB1 operator (SPR)]”, the Kd in series [6] is 272 nM; in series [7], 977 nM; in series [8], 85 nM.

As a reminder, the stoichiometry N is the number of molecules, sites or subunits per partner or assembly. Broadly, the Kd is a measure of binding affinity in units of concentration.
